Test results: patent publication US20200277405A1, “COMPOSITION FOR ANTIBODY-DRUG CONJUGATE DIRECTED AGAINST TUMOR-CELL ASSOCIATED POLYSIALIC ACID” (Cornell University, priority 2019, published 2020)

Legend:
[1] = previous SPR and ITC experiments; cited from earlier work
[2] = target: embryonic brain glycopeptides; settings: against embryonic brain glycopeptides (Hayrinen et al.); read-out: previously reported Kd; cited from earlier work
ST8SiaIV KO SW2 cells = test: Flow cytometry binding to ST8SiaIV knockout cells; assay type: cell-based, human
Source text: FIGS. 8A-8C depict binding of polySia-specific mAb to ST8SiaII and ST8SiaIV knockout cell lines. […] Data are the geometric mean fluorescence intensity (MFI), with the values reported as the average of three replicates and the error represented as the standard deviation of the mean. […] In the ST8SiaII KO SW2 cells, 73% of the population (FL1-H-) binds mo735 below the level of the wild-type SW2 cells. […] In the ST8SiaIV KO SW2 cells, 68% of the population (FL1-H-) binds mo735 below the level of the wild-type SW2 cells.
CRISPR guide RNAs targeting ST8SiaII (crRNA1: […]; SEQ ID NO: 5) and ST8Sia4 (crRNA1: […]; SEQ ID NO: 6) were purchased from Genscript in the pLentiCRISPR v2 vector. Knockout cell lines were generated in SW2 cells using protocols described by Zhang and colleagues (Shalem et al., “Genome-Scale CRISPR-Cas9 Knockout Screening in Human Cells,” Science 343:84-7 (2014), which is hereby incorporated by reference in its entirety). Briefly, after lentiviral transduction, cells were maintained under selection with 1 μg/mL puromycin for at least 14 days prior to analysis by flow cytometry.
Cancer cells were trypsinized and collected with media, followed by three washes in PBS. […] Cells were washed three times, resuspended in 500 μL of 0.5% BSA in PBS, and analyzed on a BD FACSCalibur flow cytometer using Cell Quest Pro software (BD Biosciences).

[3] = system: polySia-positive cell line SH-SY5Y; test: Time course of antibody internalization; assay type: cell-based, human
Procedure: (§1) FIGS. 10A-10E depict internalization of ch735 into polySia-positive cancer cells. […] Nuclei were stained by Hoescht (blue). Scale bar, 10 Fluorescence intensity was measured across the dotted line and normalized to the maximum value in each channel. Arrows indicate regions of colocalization. […] Nuclei were stained by Hoescht. Scale bar, 10 Fluorescence intensity was measured across the dotted line and normalized to the maximum value in each channel. Arrows indicate regions of colocalization. The inset show only the ch735 and DNA channels of the boxed region. […] Scale bar, 10 Fluorescence intensity was measured across the dotted white line and normalized to the maximum value in each channel. […]
To calculate percent internalization, pre-chilled cells were incubated with 50 nM ch735 on ice for 1 h and then washed to remove unbound antibodies. […] Cells were fixed in 2% paraformaldehyde for 20 min and then stained with AF488-labeled antibody against human IgG and analyzed by flow cytometry and FlowJo software. Receptor-antibody complex internalization was calculated using the geometric mean as percent fluorescent intensity loss at 37° C. relative to that on ice. For each sample, the geometric mean fluorescence intensity (MFI) of 10,000 cells was measured in triplicate.

SH-SY5Y cells = test: Colocalization microscopy, SH-SY5Y; assay type: cell-based, human; settings: transferrin, LAMP-3, LAMP-1 markers
Procedure: as §1
FIGS. 12A-12C depict colocalization of mo735 with markers that traffic to endolysosomal compartments. […] Following fixation and permeabilization, LAMP-1 antibody was applied and detected with anti-rabbit AF647 secondary. […] Cross-sectional fluorescence profiles are shown at right with normalized pixel intensity for selected cells (marked with box in left confocal panels) versus distance across the cell for representative cross sections (marked with bar in right confocal panels).
SH—SY5Y or SW2 cells were plated at 20,000 cells/cm^2 on poly-L-lysine coated 35 mm glass bottom dishes and adhered overnight. […] The fluorescence intensity of the plot profile was analyzed using FIJI software. […]

B1: mo735: well-known mouse-derived IgG2a monoclonal antibody 735 targeting polysialic acid (antibody, V domains shown)
VH: QIQLQQSGPELVRPGASVKISCKASGYTFTDYYIHWVKQRPGEGLEWIGWIYPGSGNTKYNEKFKGKATLTVDTSSSTAYMQLSSLTSEDSAVYFCARGGKFAMDYWGQGTSVTVSS
VL: DVVMTQTPLSLPVSLGDQASISCRSSQSLVHSNGNTYLYWYLQKPGQSPKPLIYRVSNRFSGVPDRFSGSGSGTDFTLKISRVEAEDLGVYFCFQGTHVPYTFGGGTRLEIK
[1]
  preferred polySia chain length: 8-11 sialic acid residues
[2]
  Kd: ~5 nM
ST8SiaIV KO SW2 cells
  population (FL1-H-) binding below the level of wild-type SW2 cells: 68%

B2: ch735: chimeric human IgG1 polySia-specific mAb made by swapping variable regions of mouse mAb 735 (antibody, V domains shown)
VH: B1 VH
VL: B1 VL
[3]; 15 min
  antibody internalized: ~30%
[3]; reached by 30 min
  maximum internalization: 40%
SH-SY5Y cells
  compartments of accumulation after internalization (confocal): rapidly internalized in endosomal/lysosomal compartments
